The target of the test is rabbit skeletal muscle F-actin (rabbit), P68135. Nature of the test: nanosecond emission anisotropy. Conditions: remark: other sources report otherwise.

B1: IAENS-labeled Dictyostelium severin, P10733 1-362 (natural protein)
chain: MIKNRKLDITSTNVAGIGTDLDKKCRLDAASTEAQWKGVGQAPGLKIWRIENFKVVPVPESSYGKFYDGDSYIILHTFKEGNSLKHDIHFFLGTFTTQDEAGTAAYKTVELDDFLGGAPIQYRQCQSYESPSFLSLFPKYFILSGGVESGFNHVKPTEYKPRLLHISGDKNAKVAEVPLATSSLNSGDCFLLDAGLTIYQFNGSKSSPQEKNKAAEVARAIDAERKGLPKVEVFCETDSDIPAEFWKLLGGKGAIAAKHETAPTKSEKVLYKLSDASGSLKFSEVSRGKINKSSLKSEDVFIIDLGNEIYTWIGSKSSPNEKKTAFSHATQYLVNNKRCEYTPIVRVLENGTNQSFETLLSA
modifications: here or on the partner: one to two IAENS molecules attached to the protein (residues not stated)
For the molecule B1, the rotational correlation time was over 400 ns.

Source of the values: publication PMC2112927.
